# Assay results reported in patent US20100233157A1 (published 2010).
# T1: Human Fas (CD95) on the cell surface (human, UniProt P25445 26-335)
# T1 sequence: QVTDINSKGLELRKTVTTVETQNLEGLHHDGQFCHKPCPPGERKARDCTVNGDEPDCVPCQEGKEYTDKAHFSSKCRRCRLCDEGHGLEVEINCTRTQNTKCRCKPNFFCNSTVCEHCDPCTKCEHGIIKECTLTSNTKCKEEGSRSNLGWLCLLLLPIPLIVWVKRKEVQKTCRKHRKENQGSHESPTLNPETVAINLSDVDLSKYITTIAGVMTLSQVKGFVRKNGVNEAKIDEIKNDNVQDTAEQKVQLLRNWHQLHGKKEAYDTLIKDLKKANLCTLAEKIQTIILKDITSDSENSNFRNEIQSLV
# T2: JPT31 peptide (human)
# T2 construct: Peptide of the human Fas peptide scan, immobilized on a glass microarray (JPT peptide technologies)
# T2 peptide: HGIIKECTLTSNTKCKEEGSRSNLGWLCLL
# T3: JPT32 peptide (human)
# T3 construct: Peptide of the human Fas peptide scan, immobilized on a glass microarray (JPT peptide technologies)
# T3 peptide: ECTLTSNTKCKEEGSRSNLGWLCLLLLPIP
# T4: JPT33 peptide (human)
# T4 construct: Peptide of the human Fas peptide scan, immobilized on a glass microarray (JPT peptide technologies)
# T4 peptide: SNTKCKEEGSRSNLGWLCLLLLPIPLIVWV
# B1: F45D9-γ1 mAb (recombinant human mAb T17/B2-1G4, gamma-1 isotype) (antibody, V domains shown)
# VH: QVQLQQWGAGLLKPSETLSLICAVYGGSFSTYYWTWIRQPPGKGLEWIGEINHRGTTNYSPSLKSRVTISVDTSKNHISLNLTSVTAADTALYYCARGLLWIGEGDYGLDVWGQGTTVTVSS
# VL: DIQMTQSPSSLSASVGDRVTITCRASQGIRRWLAWYQQKPEKAPKSLIYAASSLQSGVPSRFSGSGSGTDFTLTISSLQPEDFATYYCQQYNSYPYTFGQGTKLEIKR
# notes: Whole human IgG1 (γ1fa allotype) with human kappa light chain, made in CHO DG44 cells; also called IgG1; T17/L18/B2-1G4
# Experiments:
# [1] = target: T1, Human Fas (CD95) on the cell surface; experiment: cell-based or functional assay
# JPT31 peptide = target: T2, JPT31 peptide; experiment: peptide microarray (JPT), 50 ug/ml antibody
# Description: (§1) Epitope mapping of F45D9-γ1 and F45D9-γ4 mAb was done using peptide microarrays from JPT peptide technologies. The microarray is composed of several different peptide scans of TNR6_Human protein (FAS molecule, accession number P25445; Oehm A. et al. J. Biol. Chem. 267:10709, 1992), immobilized on a glass surface. The microarrays were pre-treated 2 h at room temperature with blocking buffer (Pierce, Superblock), followed by washings with TBS buffer, pH 8.0 and water (3 times each). Pre-treated arrays were scanned using Axon-4000B-Microarray Scanner for background control. […] Control incubation with secondary antibody only was performed in parallel. All microarrays were scanned using Axon-4000B-Microarray Scanner with appropriate wavelength settings. SPOT recognition software package ArrayPro was used for data analysis. Mean of signal intensities from 3 identical subarrays on each microarray image were used for data evaluation.
# JPT32 peptide = target: T3, JPT32 peptide; experiment: peptide microarray (JPT), 50 ug/ml antibody
# Description: as §1
# JPT33 peptide = target: T4, JPT33 peptide; experiment: peptide microarray (JPT), 50 ug/ml antibody
# Description: as §1
# [2] = target: T1, Human Fas (CD95) on the cell surface; experiment: flow cytometry on Jurkat cells, FITC anti-human IgG secondary, geometric MFI after background subtraction
# Description: Binding of F45D9-γ1 and F45D9-γ4 to the surface of Fas expressing Jurkat and SKW6.4 cells (from ATCC, Jurkat, clone E6-1, ATCC-TIB-152, Human T Leukemia cell line); SKW6.4 cells, ATCC-TIB-215, Human B lymphoblastoid cell line) was explored by immunofluorescence staining and flow cytometry analysis. Cells were cultured in RPMI 1640 medium (GIBCO, Cat. 3105205) supplemented with 2 mM glutamax (GIBCO), 100 UI/mL penicillin, 100 μg/mL streptomycin (Sigma) and 5-10% fetal bovine serum (GIBCO), at 37° C. and 5% CO₂. After washing in PBS Jurkat or SKW6.4 cells (0.2×10⁶ cells/well) were incubated in staining buffer (PBS/1% FBS) containing F45D9-γ1, F45D9-γ4 or human IgG control antibodies (Human IgG1, kappa, Sigma, Cat. I5154 or Human IgG4, kappa, Sigma, Cat. I4639) in a 96-well U-bottom plate for 30 min on ice, in a 100 ul/well volume. Cells were then washed once with staining buffer, and further incubated for 30 min on ice with 1:30 dilution of FITC-conjugated rabbit F(ab′)₂ anti-human IgG (DakoCytomation Cat. F0056). After washing and fixing with 1% formaldehyde in PBS cells were analyzed in a FACScan (Becton Dickinson, Mountain View, Calif.). The reactivity of F45D9-γ1 and F45D9-γ4 to the surface of Jurkat cells was quantified and Geometric Mean Fluorescence Intensity (MFI) after background subtraction (FIG. 1A) and histograms (FIG. 1B) are shown. […]
# [3] = target: T5, Common marmoset Fas on the cell surface (common marmoset (Callithrix jacchus)); experiment: flow cytometry on the marmoset B cell line 9505, FITC anti-human IgG secondary, MFI after subtraction of the control human γ1 staining
# T5 construct: whole, on cells
# Excerpt: (§2) Reactivity of F45D9-γ1 or F45D9-γ4 mAb with Fas molecules of various species was initially screened using primary blood cells or lymphocytes cell lines. The binding of F45D9-γ1 or F45D9-γ4 mAb was explored by immunofluoresce staining and flow cytometry analysis, in human PBMC, purified human resting T cells, activated human T cells, peripheral blood lymphocytes (PBL) derived from BALE/c mice, rat, dog and pig, and in B cell lines or PBL derived from common marmoset, cynomolgus macaque, olive baboon, rhesus macaque and chimpanzee. Resting and activated human T cells were prepared as described in Example 7. B cells lines from monkeys were obtained from Biomedical Primate Research Center (Rijswijk, The Netherlands), and were cultured in RPMI 1640 medium supplemented with 2 mM glutamax, 100 UI/mL penicillin, 100 μg/mL streptomycin and 10% fetal bovine serum, at 37° C. and 5% CO₂. After washing in PBS cells (0.2−0.4×10⁶ cells/well) were incubated in staining buffer (PBS/1% FBS) containing F45D9-γ1 or human IgG control antibodies (10-20 ug/ml) in a 96-well U-bottom plate for 30 min on ice, in a 100 ul/well volume. Cells were then washed once with staining buffer, and further incubated for 30 min on ice with 1:30 dilution of FITC-conjugated rabbit F(ab′)₂ anti-human kappa (DakoCytomation Cat. F0434) or FITC-conjugated rabbit F(ab′)₂ anti-human IgG (DakoCytomation Cat. F0056). […]
# [4] = target: T5, Common marmoset Fas on the cell surface; experiment: flow cytometry on the marmoset B cell line 9601, FITC anti-human IgG secondary, MFI after subtraction of the control human γ1 staining
# Excerpt: as §2
binder,measurement,setting,value
B1,"IC50 of inhibition of rhFasL-induced apoptosis in SKW6.4 cells (Annexin-V/PI, flow cytometry)",[1],0.2 nM
same,"IC50 of inhibition of rhFasL-induced apoptosis in activated human T cells (Annexin-V/PI, flow cytometry)",[1],0.02 nM
same,share of binding capacity on Jurkat cells at which complete blocking of FasL-induced apoptosis is achieved,[1],≥ 12.5%
same,binding result,JPT31 peptide,binds
same,binding result,JPT32 peptide,binds
same,binding result,JPT33 peptide,binds
same,EC50 (read off the curve),[2],~0.5 µg/mL
same,EC50 (read off the curve),[3],~2 µg/mL
same,EC50 (read off the curve),[4],~1 µg/mL
